Tests used:
[1] = biological target: T1, human LEP-R extracellular domain (hLEP-RECD), glycosylated (human, UniProt P48357 22-839); assay: SEC-MALLS
T1 sequence (looked up): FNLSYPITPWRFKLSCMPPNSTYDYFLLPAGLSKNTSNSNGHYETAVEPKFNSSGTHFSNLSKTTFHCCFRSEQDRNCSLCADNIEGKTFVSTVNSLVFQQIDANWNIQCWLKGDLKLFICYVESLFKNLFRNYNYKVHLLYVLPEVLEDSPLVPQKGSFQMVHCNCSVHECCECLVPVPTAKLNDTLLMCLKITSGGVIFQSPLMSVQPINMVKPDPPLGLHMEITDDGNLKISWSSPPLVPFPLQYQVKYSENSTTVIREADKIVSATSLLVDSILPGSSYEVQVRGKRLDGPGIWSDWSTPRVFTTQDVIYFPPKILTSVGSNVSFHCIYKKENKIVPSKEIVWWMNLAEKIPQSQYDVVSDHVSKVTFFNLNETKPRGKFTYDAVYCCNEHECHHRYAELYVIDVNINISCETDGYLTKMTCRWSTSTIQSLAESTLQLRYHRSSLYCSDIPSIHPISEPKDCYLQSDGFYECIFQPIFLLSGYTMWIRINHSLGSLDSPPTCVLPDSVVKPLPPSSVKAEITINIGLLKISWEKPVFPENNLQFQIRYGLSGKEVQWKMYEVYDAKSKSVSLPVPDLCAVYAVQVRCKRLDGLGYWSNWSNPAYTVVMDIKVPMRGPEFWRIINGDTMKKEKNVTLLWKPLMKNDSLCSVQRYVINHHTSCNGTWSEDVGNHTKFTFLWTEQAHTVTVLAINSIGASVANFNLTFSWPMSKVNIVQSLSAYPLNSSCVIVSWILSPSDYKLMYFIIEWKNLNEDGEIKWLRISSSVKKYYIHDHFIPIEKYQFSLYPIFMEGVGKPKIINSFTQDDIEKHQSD

[2] = biological target: T2, mouse LEP-R extracellular domain (mLEP-RECD) (mouse, UniProt P48356 22-839); assay: SEC-MALLS + AUC
T2 sequence (looked up): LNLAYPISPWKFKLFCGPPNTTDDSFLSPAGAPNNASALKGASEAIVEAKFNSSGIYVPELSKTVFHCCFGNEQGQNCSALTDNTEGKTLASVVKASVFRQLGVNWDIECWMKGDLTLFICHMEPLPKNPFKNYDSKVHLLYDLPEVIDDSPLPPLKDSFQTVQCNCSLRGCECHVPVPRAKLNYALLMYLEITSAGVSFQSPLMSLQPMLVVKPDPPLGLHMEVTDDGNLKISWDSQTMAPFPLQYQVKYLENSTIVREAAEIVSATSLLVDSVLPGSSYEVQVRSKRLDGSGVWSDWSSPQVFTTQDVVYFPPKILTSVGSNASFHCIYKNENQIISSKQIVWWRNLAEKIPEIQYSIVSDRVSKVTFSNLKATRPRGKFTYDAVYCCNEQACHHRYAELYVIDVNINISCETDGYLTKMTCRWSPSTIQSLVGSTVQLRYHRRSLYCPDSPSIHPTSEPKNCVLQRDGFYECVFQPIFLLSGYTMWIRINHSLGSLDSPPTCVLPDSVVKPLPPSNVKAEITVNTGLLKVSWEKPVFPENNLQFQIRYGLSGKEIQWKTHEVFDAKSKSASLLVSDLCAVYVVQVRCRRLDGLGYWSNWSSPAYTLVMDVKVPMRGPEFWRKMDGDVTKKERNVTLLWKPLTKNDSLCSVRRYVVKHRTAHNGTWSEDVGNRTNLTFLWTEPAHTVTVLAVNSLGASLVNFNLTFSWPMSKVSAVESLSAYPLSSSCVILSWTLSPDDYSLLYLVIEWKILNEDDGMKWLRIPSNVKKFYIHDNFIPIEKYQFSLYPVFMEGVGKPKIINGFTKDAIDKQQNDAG

[3] = biological target: T3, mouse LEP-R Ig-CRH2 fragment, residues 328-633, C602S (mouse, UniProt P48356 328-633, C602S); assay: SEC-MALLS
T3 sequence (looked up): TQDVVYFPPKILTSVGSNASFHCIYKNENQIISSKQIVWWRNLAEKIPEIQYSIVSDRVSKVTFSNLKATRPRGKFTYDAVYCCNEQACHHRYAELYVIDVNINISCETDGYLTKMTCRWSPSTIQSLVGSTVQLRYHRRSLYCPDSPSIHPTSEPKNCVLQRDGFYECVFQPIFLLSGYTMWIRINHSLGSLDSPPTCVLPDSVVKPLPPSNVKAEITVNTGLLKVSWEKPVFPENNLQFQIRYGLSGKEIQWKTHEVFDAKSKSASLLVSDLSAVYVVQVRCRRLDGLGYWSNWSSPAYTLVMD

[4] = biological target: T2, mouse LEP-R extracellular domain …; assay: SEC-MALLS
[5] = biological target: T2, mouse LEP-R extracellular domain …; assay: cryo-EM structure
[6] = biological target: T2, mouse LEP-R extracellular domain …; assay: BLI
[7] = biological target: T3, mouse LEP-R Ig-CRH2 fragment, residues …; assay: crystal structure

B1: mouse Leptin (mLeptin), wild type, as used in SEC-MALLS, AUC, BLI (in solution) and on cells (ligand, UniProt P41160 22-167, looked up)
chain: VPIQKVQDDTKTLIKTIVTRINDISHTQSVSAKQRVTGLDFIPGLHPILSLSKMDQTLAVYQQVLTSLPSQNVLQIANDLENLRDLLHLLAFSKSCSLPQTSGLQKPESLDGVLEASLYSTEVVALSRLQGSLQDILQQLDVSPEC
B1: binds [1]; binds [2]; binds [3].

B2: Leptin a1 antagonist (141ST142/AA), as used with mLEP-RECD (ligand, UniProt P41160 22-167, looked up)
chain: VPIQKVQDDTKTLIKTIVTRINDISHTQSVSAKQRVTGLDFIPGLHPILSLSKMDQTLAVYQQVLTSLPSQNVLQIANDLENLRDLLHLLAFSKSCSLPQTSGLQKPESLDGVLEASLYAAEVVALSRLQGSLQDILQQLDVSPEC
B2 was tested, and the “stoichiometry N” value [2] was 1.

B3: mouse Leptin a2 antagonist (60LDFI63/AAAA) (ligand, UniProt P41160 22-167, looked up)
chain: VPIQKVQDDTKTLIKTIVTRINDISHTQSVSAKQRVTGAAAAPGLHPILSLSKMDQTLAVYQQVLTSLPSQNVLQIANDLENLRDLLHLLAFSKSCSLPQTSGLQKPESLDGVLEASLYSTEVVALSRLQGSLQDILQQLDVSPEC
In the case of B3, the “stoichiometry N” value [2] is reported as 1.

B4: murinized human Leptin I85V/M89L/G132D/G139L (ligand, UniProt P41159 22-167, looked up)
chain: VPIQKVQDDTKTLIKTIVTRINDISHTQSVSSKQKVTGLDFIPGLHPILTLSKMDQTLAVYQQVLTSLPSRNVIQISNDLENLRDLLHVLAFSKSCHLPWASGLETLDSLDGVLEASLYSTEVVALSRLQGSLQDMLWQLDLSPGC
B4: binds [4].

B5: mouse Leptin refolded from E. coli, N-terminal His-tag removed with TEV protease (ligand, UniProt P41160 22-167, looked up)
chain: VPIQKVQDDTKTLIKTIVTRINDISHTQSVSAKQRVTGLDFIPGLHPILSLSKMDQTLAVYQQVLTSLPSQNVLQIANDLENLRDLLHLLAFSKSCSLPQTSGLQKPESLDGVLEASLYSTEVVALSRLQGSLQDILQQLDVSPEC
B5: binds [5].

B6: in vitro biotinylated mouse Leptin (ligand, UniProt P41160 22-167, looked up)
chain: VPIQKVQDDTKTLIKTIVTRINDISHTQSVSAKQRVTGLDFIPGLHPILSLSKMDQTLAVYQQVLTSLPSQNVLQIANDLENLRDLLHLLAFSKSCSLPQTSGLQKPESLDGVLEASLYSTEVVALSRLQGSLQDILQQLDVSPEC
modifications: biotin (NHS-PEG4-biotin, in vitro)
B6: binds [6].

B7: tag-less mouse Leptin refolded from E. coli inclusion bodies (ligand, UniProt P41160 22-167, looked up)
chain: VPIQKVQDDTKTLIKTIVTRINDISHTQSVSAKQRVTGLDFIPGLHPILSLSKMDQTLAVYQQVLTSLPSQNVLQIANDLENLRDLLHLLAFSKSCSLPQTSGLQKPESLDGVLEASLYSTEVVALSRLQGSLQDILQQLDVSPEC
B7: binds [7].

— publication doi:10.1101/2022.12.01.518327 (bioRxiv, 2022)
